Data on 14 molecules can be found in US20140356358A1 (Amgen, published 2014).

For experiment [1], the target named is T1, human neonatal Fc receptor (hFcRn) (human, UniProt P55899 24-290; P61769 21-119).
T1 construct: Biotinylated in the ELISA, Octet and yeast assays; also called human FcRn; huFcRn
Kind of experiment: SPR competition pH 5.5.

In experiment [2] the target is T1, human neonatal Fc receptor (hFcRn). Kind of experiment: BLI (Octet), association pH 6, dissociation pH 7.4. An excerpt:
To further characterize some of the variant Fc-fragments identified by the phage ELISA, binding of the variant Fc-fragments to FcRn at pH 6 and 7.4 was characterized for a subset of the identified variant Fc-fragments. DNA encoding selected variant Fc-fragment isolates, all from library L5, was introduced into a mammalian expression vector, which was used to transfect 293 6E cells using deacylated PEI essentially as described by Thomas et al. (Proc. Natl. Acad. Sci. 102(16): 5679-5684, 2005), the relevant portions of which are incorporated herein by reference. […] Concentrations were calculated using a standard curve created with a purified Fc fusion protein.
Biotinylated hFcRn at 100 nM was captured on streptavidin (SA) biosensors (ForteBio Inc., 18-5019) off-line at RT for 2 hours. Using these biotinylated hFcRn-coated SA biosensors in the Octet Red® system, association and dissociation of unlabeled proteins can be detected in real time via […] of light. […] Three association and dissociation conditions were set up: (1) association at pH 6 and dissociation at pH 6; (2) association at pH 6 and dissociation at pH 7.4; and (3) association at pH 7.4 and dissociation at pH 7.4. SA biosensors coated with biotinylated hFcRN were dipped into buffer at a specific pH for 1 min and then soaked in the samples containing variant Fc-fragments or controls at a specific pH for 5 min to allow binding to FcRn. The Fc biosensors were then soaked in buffer at a specific pH for 5 minutes more to allow the bound Fc-fragments to dissociate from FcRn. Detection of binding and dissociation of the Fc-fragments was possible through the use of bio-layer interferometry as implemented using the Octet Red® system, so that binding and dissociation were detected in real time.

Experiment [3] has the same target. The experiment can be described thus: phage ELISA pH 6.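 Further: higher score means stronger binding and above about 3 to 5 exceeds background.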
Experiment [4] shares this target. The experiment can be described thus: phage ELISA pH 7.4.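 Further: higher score means stronger binding and above about 3 to 5 exceeds background.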
Experiment [5] has the same target. The experiment can be described thus: SPR competition pH 5.5. The method, then: (§1) Binding of variant Fc-fragments to human and cynomolgus monkey FcRn was tested using a BIAcore® T100 analysis system (GE Healthcare Bio-Sciences AB Private Limited Liability Company, Uppsala, Sweden) at both pH 5.5 and pH 7.4. The test consisted of incubating various concentrations of the variant Fc-fragments or control Fc-fragments with a fixed amount of human or cynomolgus monkey FcRn under binding conditions and subsequently measuring the amount of free, unbound FcRn in these mixtures by binding to a surface (in a flow cell of a CM5 (Biacore) chip) on which an Fc-fragment was immobilized. […] Thus, the amount of unbound FcRn in the mixture was quantitatively ascertained by surface plasmon resonance through use of the BIAcore® T100 analysis system. […] Initially, a group of 23 variant-Fc-fragments (Fc-5-1 being considered a control) identified in the experiments described above were tested for binding to human FcRn.
(§2) To obtain a reasonable signal for the different molecules and conditions tested, different assay conditions were used. For assays at pH 5.5, 10 nM of human or cynomolgus monkey FcRn was mixed with serial dilutions of the variant and control Fc-fragments being tested (which ranged from 0.1˜2,000 nM) and incubated for 1 hour at room temperature in 10 mM sodium acetate, pH 5.5, 150 mM NaCl, 0.005% P20, 0.1 mg/mL BSA. As positive controls, […] human and cynomolgus monkey FcRn were each incubated in the same solution, for the same time, and at the same temperature described immediately above, but without an added Fc-fragment.
This is another data set of the same source.

The target of experiment [6] is T2, cynomolgus monkey FcRn (cynomolgus monkey, UniProt Q8SPV9 24-297; Q8SPW0 21-119, limits assumed).
T2 construct: also called Cynomolgus FcRn
The experiment can be described thus: SPR competition pH 5.5. The method, then:
as §1, §2

Where two headings read alike, the source gives them in different places.

T2 sequence (Q8SPV9 24-297 limits assumed, chain 1 of 2): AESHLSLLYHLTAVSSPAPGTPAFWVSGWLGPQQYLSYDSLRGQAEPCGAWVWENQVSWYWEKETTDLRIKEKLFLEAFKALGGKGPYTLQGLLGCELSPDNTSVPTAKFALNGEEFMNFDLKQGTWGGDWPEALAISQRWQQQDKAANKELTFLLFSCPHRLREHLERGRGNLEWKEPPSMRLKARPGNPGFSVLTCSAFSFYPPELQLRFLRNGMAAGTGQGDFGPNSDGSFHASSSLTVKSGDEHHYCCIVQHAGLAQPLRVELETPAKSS
T2 sequence (Q8SPW0 21-119 limits assumed, chain 2 of 2): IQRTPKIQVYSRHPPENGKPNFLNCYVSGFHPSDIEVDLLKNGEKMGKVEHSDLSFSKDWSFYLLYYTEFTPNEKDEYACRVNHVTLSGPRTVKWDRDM
T1 sequence (P55899 24-290 limits assumed, chain 1 of 2): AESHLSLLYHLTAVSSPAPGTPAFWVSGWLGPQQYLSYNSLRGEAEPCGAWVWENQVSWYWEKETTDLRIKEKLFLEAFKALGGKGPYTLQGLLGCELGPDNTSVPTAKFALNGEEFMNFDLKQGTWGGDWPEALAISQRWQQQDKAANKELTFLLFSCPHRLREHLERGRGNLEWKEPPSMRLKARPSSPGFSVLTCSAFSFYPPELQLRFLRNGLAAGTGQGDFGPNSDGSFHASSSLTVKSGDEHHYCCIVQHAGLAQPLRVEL
T1 sequence (P61769 21-119 limits assumed, chain 2 of 2): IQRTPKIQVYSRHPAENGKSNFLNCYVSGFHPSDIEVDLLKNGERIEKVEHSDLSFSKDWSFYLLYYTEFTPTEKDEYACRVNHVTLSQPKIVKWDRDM

B1: variant Fc-fragment Fc-5-106-M4Q (other)
chain: EPKSCDKTHTCPPCPAPELLGGPSVFLFPPKPKDTLMISRTPEVTCVVVDVSHEDPEVKFNWYVDGVEVHNAKTKPREEQYNSTYRVVSVLTVLHQDWLNGKEYKCKVSNKALPAPIEKTISKAKGQPREPQVYTLPPSRDELTKNQVSLTCLVKGFYPSDIAVEWESNGGCVFNQFNCGGGQPENNYKTTPPVLDSDGSFFLYSKLTVDKSRWQQGNVFSCSVMHEALHNHYTQKSLSLSPGK
In experiment [1], B1 had an EC50 of 34 nM.

B2: variant Fc-fragment Fc-5-106-M4S (other)
chain: EPKSCDKTHTCPPCPAPELLGGPSVFLFPPKPKDTLMISRTPEVTCVVVDVSHEDPEVKFNWYVDGVEVHNAKTKPREEQYNSTYRVVSVLTVLHQDWLNGKEYKCKVSNKALPAPIEKTISKAKGQPREPQVYTLPPSRDELTKNQVSLTCLVKGFYPSDIAVEWESNGGCVFNSFNCGGGQPENNYKTTPPVLDSDGSFFLYSKLTVDKSRWQQGNVFSCSVMHEALHNHYTQKSLSLSPGK
On to B2, for which the EC50 in experiment [1] worked out at 58 nM.

B3: variant Fc-fragment 5-1-4 (other)
chain: EPKSCDKTHTCPPCPAPELLGGPSVFLFPPKPKDTLMISRTPEVTCVVVDVSHEDPEVKFNWYVDGVEVHNAKTKPREEQYNSTYRVVSVLTVLHQDWLNGKEYKCKVSNKALPAPIEKTISKAKGQPREPQVYTLPPSRDELTKNQVSLTCLVKGFYPSDIAVEWESNGQGGCGMPIEFCGGPENNYKTTPPVLDSDGSFFLYSKLTVDKSRWQQGNVFSCSVMHEALHNHYTQKSLSLSPGK
For the molecule B3, the binding result in experiment [2] is “binds”.

B4: variant Fc-fragment Fc-5-113 (other)
chain: EPKSCDKTHTCPPCPAPELLGGPSVFLFPPKPKDTLMISRTPEVTCVVVDVSHEDPEVKFNWYVDGVEVHNAKTKPREEQYNSTYRVVSVLTVLHQDWLNGKEYKCKVSNKALPAPIEKTISKAKGQPREPQVYTLPPSRDELTKNQVSLTCLVKGFYPSDIAVEWESNGGCQGMWTWCGGGQPENNYKTTPPVLDSDGSFFLYSKLTVDKSRWQQGNVFSCSVMHEALHNHYTQKSLSLSPGK
notes: soluble elsewhere
Regarding B4, the ELISA score was found to be 56.1 in experiment [3] and 0.7 in experiment [4]. Besides, the EC50 in experiment [5] came out at 20 nM; in experiment [6], 27 nM.

B5: variant Fc-fragment 5-1-3 (other)
chain: EPKSCDKTHTCPPCPAPELLGGPSVFLFPPKPKDTLMISRTPEVTCVVVDVSHEDPEVKFNWYVDGVEVHNAKTKPREEQYNSTYRVVSVLTVLHQDWLNGKEYKCKVSNKALPAPIEKTISKAKGQPREPQVYTLPPSRDELTKNQVSLTCLVKGFYPSDIAVEWESNGGGCGMPIEFCGGQPENNYKTTPPVLDSDGSFFLYSKLTVDKSRWQQGNVFSCSVMHEALHNHYTQKSLSLSPGK
As for B5, the binding result in experiment [2] is reported as “binds”.

B6: variant Fc-fragment Fc-5-106-M4A (other)
chain: EPKSCDKTHTCPPCPAPELLGGPSVFLFPPKPKDTLMISRTPEVTCVVVDVSHEDPEVKFNWYVDGVEVHNAKTKPREEQYNSTYRVVSVLTVLHQDWLNGKEYKCKVSNKALPAPIEKTISKAKGQPREPQVYTLPPSRDELTKNQVSLTCLVKGFYPSDIAVEWESNGGCVFNAFNCGGGQPENNYKTTPPVLDSDGSFFLYSKLTVDKSRWQQGNVFSCSVMHEALHNHYTQKSLSLSPGK
B6 had an EC50 in experiment [1] of 27 nM.

B7: variant Fc-fragment 5-1-2 (other)
chain: EPKSCDKTHTCPPCPAPELLGGPSVFLFPPKPKDTLMISRTPEVTCVVVDVSHEDPEVKFNWYVDGVEVHNAKTKPREEQYNSTYRVVSVLTVLHQDWLNGKEYKCKVSNKALPAPIEKTISKAKGQPREPQVYTLPPSRDELTKNQVSLTCLVKGFYPSDIAVEWESGGCGMPIEFCGGNGQPENNYKTTPPVLDSDGSFFLYSKLTVDKSRWQQGNVFSCSVMHEALHNHYTQKSLSLSPGK
On to B7, for which, in experiment [2], the binding result is recorded as “binds”.

B8: variant Fc-fragment Fc-5-69 (other)
chain: EPKSCDKTHTCPPCPAPELLGGPSVFLFPPKPKDTLMISRTPEVTCVVVDVSHEDPEVKFNWYVDGVEVHNAKTKPREEQYNSTYRVVSVLTVLHQDWLNGKEYKCKVSNKALPAPIEKTISKAKGQPREPQVYTLPPSRDELTKNQVSLTCLVKGFYPSDIAVEWESNGGCWPLQDYCGGGQPENNYKTTPPVLDSDGSFFLYSKLTVDKSRWQQGNVFSCSVMHEALHNHYTQKSLSLSPGK
notes: soluble elsewhere
For the molecule B8, the ELISA score is 76.7 in experiment [3] and 0.6 in experiment [4]. The results for the EC50 in experiment [6] and in experiment [1] were 18 nM and 20 nM, respectively.

B9: variant Fc-fragment Fc-5-106-M4G (other)
chain: EPKSCDKTHTCPPCPAPELLGGPSVFLFPPKPKDTLMISRTPEVTCVVVDVSHEDPEVKFNWYVDGVEVHNAKTKPREEQYNSTYRVVSVLTVLHQDWLNGKEYKCKVSNKALPAPIEKTISKAKGQPREPQVYTLPPSRDELTKNQVSLTCLVKGFYPSDIAVEWESNGGCVFNGFNCGGGQPENNYKTTPPVLDSDGSFFLYSKLTVDKSRWQQGNVFSCSVMHEALHNHYTQKSLSLSPGK
With B9, in experiment [1], a half-maximal response (EC50) required 100 nM.

B10: variant Fc-fragment Fc-5-112 (other)
chain: EPKSCDKTHTCPPCPAPELLGGPSVFLFPPKPKDTLMISRTPEVTCVVVDVSHEDPEVKFNWYVDGVEVHNAKTKPREEQYNSTYRVVSVLTVLHQDWLNGKEYKCKVSNKALPAPIEKTISKAKGQPREPQVYTLPPSRDELTKNQVSLTCLVKGFYPSDIAVEWESNGGCALYPTNCGGGQPENNYKTTPPVLDSDGSFFLYSKLTVDKSRWQQGNVFSCSVMHEALHNHYTQKSLSLSPGK
notes: soluble elsewhere
On to B10, for which the ELISA score in experiment [3] came to 62.7; in experiment [4] it was 0.4. Also, the figures for the concentration for a half-maximal effect (EC50) in experiment [5] and in experiment [6] were 46 nM and 49 nM, respectively.

B11: variant Fc-fragment Fc-5-69-W1Y (other)
chain: EPKSCDKTHTCPPCPAPELLGGPSVFLFPPKPKDTLMISRTPEVTCVVVDVSHEDPEVKFNWYVDGVEVHNAKTKPREEQYNSTYRVVSVLTVLHQDWLNGKEYKCKVSNKALPAPIEKTISKAKGQPREPQVYTLPPSRDELTKNQVSLTCLVKGFYPSDIAVEWESNGGCYPLQDYCGGGQPENNYKTTPPVLDSDGSFFLYSKLTVDKSRWQQGNVFSCSVMHEALHNHYTQKSLSLSPGK
notes: also called Fc-5-69-WIY
For B11, in experiment [1], the EC50 is 140 nM.

B12: variant Fc-fragment Fc-5-106-M4N (other)
chain: EPKSCDKTHTCPPCPAPELLGGPSVFLFPPKPKDTLMISRTPEVTCVVVDVSHEDPEVKFNWYVDGVEVHNAKTKPREEQYNSTYRVVSVLTVLHQDWLNGKEYKCKVSNKALPAPIEKTISKAKGQPREPQVYTLPPSRDELTKNQVSLTCLVKGFYPSDIAVEWESNGGCVFNNFNCGGGQPENNYKTTPPVLDSDGSFFLYSKLTVDKSRWQQGNVFSCSVMHEALHNHYTQKSLSLSPGK
B12: in experiment [1], the EC50 came out at 100 nM.

B13: variant Fc-fragment Fc-5-106-M4H (other)
chain: EPKSCDKTHTCPPCPAPELLGGPSVFLFPPKPKDTLMISRTPEVTCVVVDVSHEDPEVKFNWYVDGVEVHNAKTKPREEQYNSTYRVVSVLTVLHQDWLNGKEYKCKVSNKALPAPIEKTISKAKGQPREPQVYTLPPSRDELTKNQVSLTCLVKGFYPSDIAVEWESNGGCVFNHFNCGGGQPENNYKTTPPVLDSDGSFFLYSKLTVDKSRWQQGNVFSCSVMHEALHNHYTQKSLSLSPGK
Take B13: in experiment [1], the response was half-maximal at 100 nM (EC50).

B14: variant Fc-fragment Fc-5-69-W1F (other)
chain: EPKSCDKTHTCPPCPAPELLGGPSVFLFPPKPKDTLMISRTPEVTCVVVDVSHEDPEVKFNWYVDGVEVHNAKTKPREEQYNSTYRVVSVLTVLHQDWLNGKEYKCKVSNKALPAPIEKTISKAKGQPREPQVYTLPPSRDELTKNQVSLTCLVKGFYPSDIAVEWESNGGCFPLQDYCGGGQPENNYKTTPPVLDSDGSFFLYSKLTVDKSRWQQGNVFSCSVMHEALHNHYTQKSLSLSPGK
notes: also called Fc-5-69-WIF
B14: the response in experiment [1] was half-maximal at 57 nM (EC50).
